Data reported in the supplement of paper PMC9112550, “Optimization of the antimicrobial peptide Bac7 by deep mutational scanning” (BMC Biology, 2022).

Test system: Escherichia coli TOP10
Test: shrunken log2 fold change of peptide-encoding DNA abundance (4.5 h post-induction vs induction); higher = less antimicrobial activity (less host growth inhibition)
Conditions: time post-induction: 4.5 h; library: site-saturation at positions 5, 18, 19, 20
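Further: peptides expressed intracellularly from a pBAD plasmid library in pooled LB shake-flask culture, induced with 0.3% L-arabinose, DNA abundance read by NGS, three biological replicates, DESeq2 with apeglm shrinkage.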

Sequence	shrunken log2 fold change
RRIRYRPPRLPRPRPRPVEHPRP	-0.0137
RRIRPRPPRLPRPRPRPNANPRP	0.0132
RRIRTRPPRLPRPRPRPHMTPRP	-0.265
RRIRCRPPRLPRPRPRPTHCPRP	0.363
RRIRARPPRLPRPRPRPNNYPRP	-0.356
RRIRVRPPRLPRPRPRPGGIPRP	0.143
RRIRPRPPRLPRPRPRPVGHPRP	0.0338
RRIRDRPPRLPRPRPRPKFMPRP	-0.191
RRIRKRPPRLPRPRPRPNGCPRP	-0.0163
RRIRVRPPRLPRPRPRPFAVPRP	-0.00738
RRIRLRPPRLPRPRPRPLTNPRP	-0.325
RRIRYRPPRLPRPRPRPLSGPRP	-0.0308
RRIRVRPPRLPRPRPRPRQQPRP	0.168
RRIRFRPPRLPRPRPRPVKDPRP	-0.254
RRIRHRPPRLPRPRPRPAYFPRP	-0.833
RRIRMRPPRLPRPRPRPRHWPRP	0.477
RRIRQRPPRLPRPRPRPYPKPRP	0.00727
RRIRLRPPRLPRPRPRPMIKPRP	0.0349
RRIRDRPPRLPRPRPRPTIKPRP	-0.295
RRIRERPPRLPRPRPRPEHNPRP	-0.203
RRIRKRPPRLPRPRPRPIDAPRP	0.318
RRIRLRPPRLPRPRPRPMRKPRP	0.651
RRIRLRPPRLPRPRPRPLSTPRP	-0.471
RRIRFRPPRLPRPRPRPCTAPRP	-0.487
RRIRFRPPRLPRPRPRPARKPRP	0.294

Sequence	shrunken log2 fold change
RRIRLRPPRLPRPRPRPAVRPRP	0.0913
RRIRHRPPRLPRPRPRPEINPRP	-0.253
RRIRQRPPRLPRPRPRPHMVPRP	-0.0317
RRIRPRPPRLPRPRPRPRRGPRP	0.46
RRIRARPPRLPRPRPRPCLMPRP	-0.0504
RRIRHRPPRLPRPRPRPDRMPRP	-0.093
RRIRFRPPRLPRPRPRPCIRPRP	-0.0335
RRIRYRPPRLPRPRPRPSTCPRP	-0.687
RRIRLRPPRLPRPRPRPNCLPRP	-0.61
RRIRVRPPRLPRPRPRPNPRPRP	0.21
RRIRYRPPRLPRPRPRPGRKPRP	-0.155
RRIRARPPRLPRPRPRPSEWPRP	0.0632
RRIRTRPPRLPRPRPRPRFAPRP	0.37
RRIRVRPPRLPRPRPRPLPIPRP	-0.398
RRIRLRPPRLPRPRPRPKNHPRP	-0.269
RRIRKRPPRLPRPRPRPGHGPRP	0.16
RRIRSRPPRLPRPRPRPEHIPRP	0.0843
RRIRPRPPRLPRPRPRPQGMPRP	-0.279
RRIRLRPPRLPRPRPRPWSTPRP	-0.137
RRIRERPPRLPRPRPRPSVRPRP	-0.148
RRIRVRPPRLPRPRPRPWSHPRP	-0.125
RRIRSRPPRLPRPRPRPVMEPRP	-0.0868
RRIRVRPPRLPRPRPRPLMVPRP	-0.443
RRIRVRPPRLPRPRPRPKNSPRP	-0.34
RRIRGRPPRLPRPRPRPWERPRP	0.0531

Sequence	shrunken log2 fold change
RRIRVRPPRLPRPRPRPKELPRP	-0.00952
RRIRARPPRLPRPRPRPPTDPRP	0.839
RRIRFRPPRLPRPRPRPCKFPRP	-0.0298
RRIRTRPPRLPRPRPRPRWVPRP	0.216
RRIRHRPPRLPRPRPRPSNDPRP	-0.849
RRIRMRPPRLPRPRPRPNSFPRP	-0.298
RRIRYRPPRLPRPRPRPEMYPRP	-0.0203
RRIRGRPPRLPRPRPRPNQTPRP	-0.0961
RRIRPRPPRLPRPRPRPWWWPRP	-0.00448
RRIRMRPPRLPRPRPRPKDLPRP	0.153
RRIRHRPPRLPRPRPRPHMCPRP	-0.0681
RRIRPRPPRLPRPRPRPSENPRP	-0.0512
RRIRCRPPRLPRPRPRPRNMPRP	0.0316
RRIRNRPPRLPRPRPRPNNLPRP	-0.202
RRIRERPPRLPRPRPRPWEWPRP	0.0992
RRIRVRPPRLPRPRPRPSTAPRP	-0.0759
RRIRIRPPRLPRPRPRPTQKPRP	0.0769
RRIRIRPPRLPRPRPRPKDPPRP	-0.111
RRIRLRPPRLPRPRPRPSQTPRP	-0.217
RRIRPRPPRLPRPRPRPINYPRP	-0.402
RRIRHRPPRLPRPRPRPMLLPRP	0.0408
RRIRRRPPRLPRPRPRPHNGPRP	-0.172
RRIRVRPPRLPRPRPRPNATPRP	0.172
RRIRKRPPRLPRPRPRPSGYPRP	-0.0136
RRIRHRPPRLPRPRPRPIVPPRP	0.0781

Sequence	shrunken log2 fold change
RRIRNRPPRLPRPRPRPYHCPRP	-0.0116
RRIRFRPPRLPRPRPRPNNIPRP	-1.04
RRIRNRPPRLPRPRPRPEGRPRP	0.177
RRIRNRPPRLPRPRPRPSEDPRP	-0.145
RRIRWRPPRLPRPRPRPAFVPRP	0.139
RRIRPRPPRLPRPRPRPNIHPRP	-0.579
RRIRKRPPRLPRPRPRPTAYPRP	0.185
RRIRLRPPRLPRPRPRPQHDPRP	-0.0854
RRIRPRPPRLPRPRPRPMRKPRP	0.365
RRIRQRPPRLPRPRPRPRNYPRP	0.034
RRIRPRPPRLPRPRPRPNWYPRP	-0.338
RRIRERPPRLPRPRPRPPANPRP	0.0983
RRIRARPPRLPRPRPRPFTRPRP	0.105
RRIRKRPPRLPRPRPRPKMTPRP	0.187
RRIRFRPPRLPRPRPRPVHNPRP	-0.104
RRIRWRPPRLPRPRPRPWTDPRP	-0.0932
RRIRERPPRLPRPRPRPNLAPRP	-0.194
RRIRQRPPRLPRPRPRPSNKPRP	-0.513
RRIRGRPPRLPRPRPRPGHAPRP	0.801
RRIRVRPPRLPRPRPRPKNRPRP	0.137
RRIRQRPPRLPRPRPRPVTMPRP	-0.0817
RRIRGRPPRLPRPRPRPNATPRP	3.1
RRIRQRPPRLPRPRPRPMTWPRP	-0.0225
RRIRARPPRLPRPRPRPQNYPRP	-0.1
RRIRERPPRLPRPRPRPWNLPRP	-0.00195

Sequence	shrunken log2 fold change
RRIRKRPPRLPRPRPRPIQWPRP	-0.00149
RRIRQRPPRLPRPRPRPWPYPRP	0.0155
RRIRDRPPRLPRPRPRPRCQPRP	-0.128
RRIRDRPPRLPRPRPRPIVKPRP	0.0295
RRIRMRPPRLPRPRPRPCAIPRP	-0.216
RRIRTRPPRLPRPRPRPLIVPRP	-0.438
RRIRDRPPRLPRPRPRPIAEPRP	0.195
RRIRPRPPRLPRPRPRPQQFPRP	-0.049
RRIRMRPPRLPRPRPRPTWTPRP	0.667
RRIRARPPRLPRPRPRPNMEPRP	-0.0484
RRIRMRPPRLPRPRPRPDANPRP	3.18
RRIRMRPPRLPRPRPRPYWQPRP	-0.312
RRIRERPPRLPRPRPRPPPMPRP	0.271
RRIRLRPPRLPRPRPRPKVQPRP	0.22
RRIRIRPPRLPRPRPRPQCMPRP	-0.836
RRIRFRPPRLPRPRPRPRDDPRP	0.133
RRIRCRPPRLPRPRPRPDYVPRP	-1.26
RRIRSRPPRLPRPRPRPTENPRP	0.148
RRIRRRPPRLPRPRPRPGVGPRP	0.59
RRIRYRPPRLPRPRPRPCFPPRP	-1.06
RRIRTRPPRLPRPRPRPMHNPRP	-0.503
RRIRGRPPRLPRPRPRPSHEPRP	-0.418
RRIRTRPPRLPRPRPRPQWEPRP	0.0154
RRIRKRPPRLPRPRPRPHAMPRP	-0.0147
RRIRTRPPRLPRPRPRPYGIPRP	-0.0927

Sequence	shrunken log2 fold change
RRIRWRPPRLPRPRPRPYHTPRP	-0.816
RRIRRRPPRLPRPRPRPRMRPRP	0.744
RRIRTRPPRLPRPRPRPSKHPRP	-0.351
RRIRYRPPRLPRPRPRPSSEPRP	0.0163
RRIRARPPRLPRPRPRPCRFPRP	0.0212
RRIRHRPPRLPRPRPRPHVVPRP	-0.0954
RRIRARPPRLPRPRPRPIMWPRP	0.217
RRIRYRPPRLPRPRPRPEAYPRP	-0.185
RRIRARPPRLPRPRPRPDMWPRP	0.422
RRIRLRPPRLPRPRPRPMVVPRP	-0.0179
RRIRKRPPRLPRPRPRPKVTPRP	0.0261
RRIRCRPPRLPRPRPRPGHTPRP	-0.128
RRIRFRPPRLPRPRPRPSSIPRP	-0.945
RRIRLRPPRLPRPRPRPGTTPRP	-0.221
RRIRWRPPRLPRPRPRPCQHPRP	-0.116
RRIRHRPPRLPRPRPRPYLQPRP	-0.0639
RRIRFRPPRLPRPRPRPMIQPRP	-0.0594
RRIRIRPPRLPRPRPRPPNEPRP	-0.365
RRIRHRPPRLPRPRPRPYLWPRP	0.0116
RRIRPRPPRLPRPRPRPRPIPRP	0.27
RRIRLRPPRLPRPRPRPMPIPRP	0.301
RRIRKRPPRLPRPRPRPMTFPRP	-0.00803
RRIRRRPPRLPRPRPRPIYKPRP	-0.394
RRIRPRPPRLPRPRPRPSHAPRP	-0.166
RRIRVRPPRLPRPRPRPCTHPRP	0.0145
